Assay results from PMC7764402.

Target: Vorin-cat (C-terminal catalytic mART domain of Vorin), wild type (Erwinia amylovora ATCC BAA-2158)
Assay: SEC; IMAC-purified Vorin-cat/VorinI (5 mg) on HiLoad 16/60 Superdex-200; fractions analysed by SDS-PAGE with Coomassie stain; dialysed against 50 mM Tris pH 7.5, 250 mM NaCl, 10% glycerol before the run

Substance: VorinI (Vorin Immunity protein) (natural protein)
- stoichiometry N (VorinI per Vorin-cat): 1
